Data on one substance can be found in paper PMC5643395.

In this data set the test system is histone octamer WT. The data set can be described thus: ensemble FRET (microplate), salt-induced disassembly. As to conditions: Reconstitution by dialysis from 2 M to 5 mM NaCl in 10 mM Tris-HCl, 0.1 mM EDTA; FRET over NaCl titration (FRET buffer and temperature not in the material) ….

For Widom 601 170 bp, the K half was 800 mM NaCl.
